Assay results reported in article PMC8913300, “Two distinct classes of cochaperones compete for the EEVD motif in heat shock protein 70 to tune its chaperone activities” (The Journal of Biological Chemistry, 2022).

How the values were obtained:
[1] = test system: WT Hsp72; assay: DnaJB4 stimulation of ATPase activity of WT Hsp72 (malachite green); type: biochemical
Procedure: (§1) ATPase assays were carried out using the malachite green assay as described ([14], [83]). In brief, 1 μM Hsp72 and various concentrations of DnaJB4 were added to clear 96-well plates, and the reactions were initiated by addition of 2.5 mM ATP. Reactions were allowed to proceed for 1 h at 37 °C, after which they were developed using malachite green reagent and quenched with sodium citrate. Plate absorbance was measured at 620 nm, and a standard curve of sodium phosphate was used to convert the absorbance values to pmol ATP/μM Hsp72/min. Vmax and Km, app were derived as fit parameters to a modified Michaelis–Menten model (ATPase rate=Vmax∗[DnaJB4]/(Km, app+[DnaJB4])) where Vmax reflects the maximal increased ATP hydrolysis conferred by DnaJB4 binding and Km,app represents the half-maximal concentration of DnaJB4 binding to and stimulating the ATPase activity of Hsp72.

[2] = test system: Hsp90⍺ ubiquitination by CHIP; assay: In vitro ubiquitination of Hsp90⍺ by CHIP in the presence of DnaJB4; type: biochemical; details: 1 μM CHIP, 1 μM FAM-labeled Hsp90⍺, increasing DnaJB4, 10 min room temperature
Procedure: (§2) Four 4 × stock solutions were prepared containing (i) Ube1 (R&D Systems) + UbcH5c/UBE2D3 (R&D Systems) (400 nM Ube1 and 4 μM UbcH5c), (ii) Ubiquitin (R&D Systems) (1 mM Ub), (iii) CHIP + substrate + DnaJB4 (4 μM CHIP, 4 μM substrate, varying concentrations of DnaJB4), and (iv) ATP + MgCl2 (10 mM ATP and 10 mM MgCl2) in ubiquitination assay buffer (50 mM Tris pH 8.0, 15 mM NaCl). CHIP + substrate + DnaJB4 solutions were allowed to equilibrate at room temperature for 30 min prior to initiating the reaction. Ubiquitination reactions were generated by adding 10 μl of each 4 × stock, in order from 1 to 4, for a final volume of 40 μl(100 nM Ube1, 1 μM UbcH5c, 250 μM ubiquitin, 2.5 mM ATP, 2.5 mM MgCl2, 1 μM CHIP and 1 μM substrate). […] Samples were separated by SDS-PAGE on 4% to 20% polyacrylamide gels (Bio-Rad) and analyzed by in-gel fluorescence on a Chemidoc Imager (Bio-Rad) using the SYBR green fluorescence setting or by staining with Coomassie blue reagent. Quantitation of substrate ubiquitination was performed by densitometry analysis in ImageJ (NIH), which was thresholded to a no-CHIP control.
(§3) Substrates for in vitro ubiquitination assays were labeled with 6-carboxyfluorescein (FAM) to enable in-gel fluorescence measurement of ubiquitination as described ([35]). […]

[3] = test system: Hsp72 I637A; assay: DnaJB4 stimulation of ATPase activity of Hsp72 I637A (malachite green); type: biochemical
Procedure: as §1

[4] = test system: Hsp70–CHIP complex; assay: In vitro ubiquitination of Hsc70 by CHIP in the presence of DnaJB4; type: biochemical; details: 1 μM CHIP, 1 μM FAM-labeled Hsc70, increasing DnaJB4, 10 min room temperature
Procedure: as §2, §3

[5] = test system: Hsp72 ΔEEVD; assay: DnaJB4 stimulation of ATPase activity of Hsp72 ΔEEVD (malachite green); type: biochemical; details: Hsp72 ΔEEVD mutant
Procedure: as §1

[6] = test system: MAPT/tau ubiquitination by CHIP; assay: In vitro ubiquitination of MAPT/tau by CHIP in the presence of DnaJB4; type: biochemical; details: 1 μM CHIP, tau substrate, 30 min room temperature
Procedure: Four 4 × stock solutions were prepared containing (i) Ube1 (R&D Systems) + UbcH5c/UBE2D3 (R&D Systems) (400 nM Ube1 and 4 μM UbcH5c), (ii) Ubiquitin (R&D Systems) (1 mM Ub), (iii) CHIP + substrate + DnaJB4 (4 μM CHIP, 4 μM substrate, varying concentrations of DnaJB4), and (iv) ATP + MgCl2 (10 mM ATP and 10 mM MgCl2) in ubiquitination assay buffer (50 mM Tris pH 8.0, 15 mM NaCl). CHIP + substrate + DnaJB4 solutions were allowed to equilibrate at room temperature for 30 min prior to initiating the reaction. Ubiquitination reactions were generated by adding 10 μl of each 4 × stock, in order from 1 to 4, for a final volume of 40 μl(100 nM Ube1, 1 μM UbcH5c, 250 μM ubiquitin, 2.5 mM ATP, 2.5 mM MgCl2, 1 μM CHIP and 1 μM substrate). Reactions were incubated at room temperature (10 min for chaperone ubiquitination, 30 min for tau ubiquitination), quenched in 20 μl 3 × SDS-PAGE loading buffer (188 mM Tris-HCl pH 6.8, 3% SDS, 30% glycerol, 0.01% bromophenol blue, 15% β-mercaptoethanol), and heated to 95 °C for 5 min. Samples were separated by SDS-PAGE on 4% to 20% polyacrylamide gels (Bio-Rad) and analyzed by in-gel fluorescence on a Chemidoc Imager (Bio-Rad) using the SYBR green fluorescence setting or by staining with Coomassie blue reagent. Quantitation of substrate ubiquitination was performed by densitometry analysis in ImageJ (NIH), which was thresholded to a no-CHIP control. […]

[7] = target: T1, DnaJB4 (Homo sapiens, UniProt Q9UDY4); assay: Differential scanning fluorimetry of DnaJB4 with chaperone peptides; type: binding; details: 5 μM DnaJB4, 100 μM peptide; for DnaJB4 apparent melting temperature (Tm,app): 5× Sypro Orange, JDP binding buffer, mean ± SD (n = 4), without peptide 57 ± 0.06 °C
T1 construct: 6-His with TEV-cleavable linker (N, cleaved yes); made in house; host or cells: Escherichia coli BL21 (DE3) Rosetta
T1 sequence (Q9UDY4 whole entry): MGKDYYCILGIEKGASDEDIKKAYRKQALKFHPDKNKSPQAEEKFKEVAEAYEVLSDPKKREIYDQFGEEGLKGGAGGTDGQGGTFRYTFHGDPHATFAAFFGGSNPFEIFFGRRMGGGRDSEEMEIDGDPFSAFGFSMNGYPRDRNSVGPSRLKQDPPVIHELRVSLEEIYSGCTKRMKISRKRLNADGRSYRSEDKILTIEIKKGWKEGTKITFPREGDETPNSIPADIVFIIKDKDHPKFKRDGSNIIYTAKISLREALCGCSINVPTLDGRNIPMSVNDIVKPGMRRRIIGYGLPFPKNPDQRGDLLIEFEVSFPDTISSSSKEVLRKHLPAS
Procedure: DSF was performed with a 15-μl assay volume in 384-well Axygen quantitative PCR plates (Fisher Scientific) on a qTower ([3]) real-time PCR thermal cycler (Analytik Jena). Fluorescence intensity readings were taken over 70 cycles in “up-down” mode, where reactions were heated to desired temperature and then cooled to 25 °C before reading. The temperature was increased 1 °C per cycle. Each well contained 5 μM DnaJB4, 5 × Sypro Orange dye (Thermo Fisher), and 100 μM of peptide in JDP binding buffer. Fluorescence intensity data were truncated between 45 and 70 °C, plotted relative to temperature, and fit to a Boltzmann Sigmoid in Prism 9.0 (GraphPad). DnaJB4 apparent melting temp (Tm,app) was calculated based on the following equation: Y = Bottom + ((Top-Bottom)/(1 + exp(Tm-T/Slope))).

[8] = target: T1, DnaJB4; assay: DnaJB4 FP competition (displacement of Hsp72 tracer); type: binding; details: 100 μM peptide, 5 μM DnaJB4, 20 nM Hsp72 tracer, 30 min room temperature; for % tracer displacement: relative to DMSO control, mean ± SD (n = 4)
Procedure: (§4) All FP experiments were performed in 384-well, black, low-volume, round-bottom plates at a final assay volume of 18 μl (Corning 4511). Polarization values in millipolarization units (mP) were measured at an excitation wavelength of 485 nm and an emission wavelength of 525 nm, with 100 flashes per read using a Spectramax M5 plate reader (Molecular Devices). All experiments were performed 2 times in quadruplicate. Experimental data were analyzed using GraphPad Prism 9. Saturation binding data were background subtracted, and curves were fit using the model [Agonist] versus response (three parameters). For competition experiments, data were background subtracted to tracer alone and normalized to DMSO control to determine relative tracer displacement.
Unlabeled peptides were assessed for the ability to compete with the Hsp72 tracer. Briefly, 100 μM peptides were incubated with 5 μM DnaJB4 and 20 nM Hsp72 tracer in JDP binding buffer (see above). The plate was covered from light and allowed to incubate at room temperature for 30 min prior to reading.

[9] = target: T2, CHIP (Homo sapiens, UniProt Q9UNE7); assay: CHIP FP competition (displacement of Hsp72 tracer); type: binding; details: 100 μM peptide, 1.58 μM CHIP, 20 nM Hsp72 tracer, 30 min room temperature
T2 construct: 6-His with TEV-cleavable linker (N, cleaved yes); made in house; host or cells: E. coli BL21(DE3)
T2 sequence (Q9UNE7 1-303): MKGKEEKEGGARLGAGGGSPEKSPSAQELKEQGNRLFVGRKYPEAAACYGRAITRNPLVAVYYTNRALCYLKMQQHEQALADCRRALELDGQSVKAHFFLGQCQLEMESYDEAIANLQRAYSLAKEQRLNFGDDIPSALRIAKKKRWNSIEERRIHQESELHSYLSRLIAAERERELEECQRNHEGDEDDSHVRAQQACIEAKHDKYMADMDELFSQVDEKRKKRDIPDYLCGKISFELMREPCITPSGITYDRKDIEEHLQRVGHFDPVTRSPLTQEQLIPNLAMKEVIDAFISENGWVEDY
Procedure: as §4
Mixtures of 1.58 μM CHIP and 20 nM Hsp72 tracer were incubated with 100 μM unlabeled competitor peptides in CHIP FP assay buffer (50 mM Hepes pH 7.4, 50 mM KCl, 0.01% Triton X-100). The plate was covered from light and allowed to incubate at room temperature for 30 min prior to reading.

[10] = test system: Hsp72–DnaJB4 complex; assay: Luciferase refolding by Hsp72/DnaJB4 in the presence of TPR cochaperones; type: biochemical; details: 1 μM Hsp72, 100 nM denatured luciferase, 120 nM DnaJB4; CHIP titration or 10 μM TPR protein; 1 h at 37 °C
Procedure: (§5) Experiments were performed as described ([14]). Briefly, Renilla luciferase (Promega) was denatured in 8 M GdnHCl for 2 h at room temperature. Hsp72 (1 μM) and denatured luciferase (100 nM) were diluted into a working concentration in buffer containing an ATP regenerating system (23 mM Hepes, 120 mM KAc, 1.2 mM MgAc, 15 mM DTT, 61 mM creatine phosphate, 35 units/ml creatine kinase, and 5 ng/μl bovine serum albumin, pH 7.4). A titration series of DnaJB4 was added, and the reaction was initiated with the addition of 2.5 mM ATP. For competition assays with DnaJB4, complexes of Hsp72 (1 μM), denatured luciferase (100 nM), and DnaJB4 (120 nM) were incubated with either a titration of CHIP or 10 μM of indicated TPR protein. In all cases, the assay was allowed to incubate for 1 h at 37 °C in white, 96-well flat-bottom plates (Corning 3990). Luminescence was measured using the SteadyGlo luminescence reagent (Promega), and percent refolded luciferase was calculated using a standard curve of 100 to 0 nM native luciferase.

[11] = test system: denatured Renilla luciferase; assay: Luciferase refolding by Hsp72 variants in the presence of DnaJB4; type: biochemical; details: 1 μM Hsp72, 100 nM denatured luciferase, DnaJB4 titration, 1 h at 37 °C
Procedure: as §5

[12] = test system: Hsp72 ATPase activity; assay: Intrinsic ATPase activity of Hsp72 variants (malachite green); type: biochemical; details: 1 μM Hsp72, 2.5 mM ATP, 1 h at 37 °C, mean ± SD (n = 3)
Procedure: as §1

[13] = test system: denatured Renilla luciferase; assay: Luciferase refolding by Hsp72 variants in the presence of DnaJA2; type: biochemical; details: 1 μM Hsp72, 100 nM denatured luciferase, 1 h at 37 °C

Substance: DnaJB4: representative class B J-domain protein, recombinant, full length
- stimulation of Vmax,app over baseline ([1]; WT Hsp72): ~4 fold
- maximum ATPase activity (Vmax,app) ([1]; WT Hsp72 1 μM, DnaJB4 titration, 2.5 mM ATP, 1 h at 37 °C, Michaelis–Menten fit): 37.8 ± 3.5 pmol ATP/min
- Km ([1]; WT Hsp72 1 μM, DnaJB4 titration, Michaelis–Menten fit, read-out: half-maximal concentration (Km,app)): ~0.06 µM
- effect on Hsp90 ubiquitination by CHIP [2]: no effect
- Vmax,app above baseline ([3]; Hsp72 I637A): ~2 fold
- Vmax,app ([3]; Hsp72 I637A 1 μM, DnaJB4 titration, 2.5 mM ATP, 1 h at 37 °C, Michaelis–Menten fit): 23.9 ± 3.6 pmol ATP/min
- Km ([3]; Hsp72 I637A 1 μM, DnaJB4 titration, Michaelis–Menten fit, read-out: Km,app): ~0.01 µM
- effect on Hsp70 ubiquitination by CHIP [4]: dose-dependent inhibition
- stimulation of ATPase activity [5]: unable to stimulate
- effect on ubiquitination of Hsc70 and tau by CHIP [6]: suppressed

Substance: GSGPTIEEVD [Hsp72, unlabeled, N-acetylated 10-mer peptide corresponding to the C terminus of Hsp72/HSPA1A]
- DnaJB4 apparent melting temperature (Tm,app) [7]: 58 ± 0.21 °C
- positive shift in the melt curves ([7]; versus no peptide): 1 to 2 °C
- % tracer displacement [8]: 40.2 ± 4.6%

Substance: GSGPTIEEVD-CONH2 [peptide with an amidated Hsp72 C terminus]
- binding to CHIP in FP competition relative to WT Hsp72 peptide [9]: carboxylate was important for binding to CHIP
- binding to DnaJB4 in FP competition relative to WT Hsp72 peptide [8]: drastically reduced binding

Substance: HOP: Hsc70 organizing protein, TPR cochaperone
- effect on client (luciferase) refolding by Hsp72–DnaJB4 [10]: suppressed luciferase refolding

Substance: Hsp72 I637A: full-length Hsp72 with point mutation of the critical P5 isoleucine residue
- ability to coordinate with DnaJB4 in luciferase refolding [11]: nearly completely impaired
- intrinsic ATPase activity [12]: 15.8 ± 3.9 pmol ATP/min
- luciferase refolding in the presence of DnaJA2 [13]: comparably with WT

Substance: Hsp72 ΔEEVD: mutant of full-length Hsp72 in which the EEVD motif was deleted
- ability to coordinate with DnaJB4 in luciferase refolding [11]: nearly completely impaired
- intrinsic ATPase activity [12]: 4.6 ± 1.9 pmol ATP/min

Substance: Hsp90β: unlabeled, N-acetylated 10-mer peptide corresponding to the C terminus of Hsp90β
- DnaJB4 apparent melting temperature (Tm,app) [7]: 57 ± 0.20 °C
- % tracer displacement [8]: −1.3 ± 2.2%

Substance: Hsp90⍺: unlabeled, N-acetylated 10-mer peptide corresponding to the C terminus of Hsp90⍺
- DnaJB4 apparent melting temperature (Tm,app) [7]: 57 ± 0.15 °C
- % tracer displacement [8]: −7.7 ± 1.5%

Substance: IEEVD
- binding to DnaJB4 in FP competition relative to WT Hsp72 peptide [8]: further worsened it

Substance: TIEEVD
- binding to DnaJB4 in FP competition relative to WT Hsp72 peptide [8]: significantly weakened affinity

Substance: WT Hsp72: full-length recombinant Hsp72/HSPA1A
- intrinsic ATPase activity [12]: 10.9 ± 2.8 pmol ATP/min
